The values below come from patent US20160075792A1 (Kyowa Kirin, published 2016).

The target of this test is T1, human CD40 (human, UniProt P25942 21-277).
T1 construct: Endogenous CD40 on Ramos cells (ATCC CRL-1596), 'which expresses human CD40'
Put plainly: flow cytometry (FACS, MFI) on Ramos cells expressing human CD40, R-PE anti-human antibody detection. As to the method:
The Ramos cell line was suspended in staining buffer (SB) of PBS containing 0.1% NaN₃, 2 mM EDTA, and 2% FCS at a density of […]. The cell suspension (100 μL/well) was dispensed into a 96-well round-bottom plate (manufactured by Becton Dickinson). The purified antibody (50 μL) was added thereto, followed by incubation at ice temperature for 30 minutes. As negative control, an anti-human IgG2 antibody against 2,4-dinitrophenol was used and the purified antibodies (50 μL) were similarly added, followed by incubation at ice temperature for 15 minutes. After the cells were washed with SB, 50 μL of 250-fold diluted R-PE fluorescence-labeled anti-human antibodies (manufactured by Southern Biotechnology) was added thereto, followed by incubation at ice temperature for 15 minutes. The cells were washed twice with SB and suspended in 300 to 500 μL of FACS buffer. And the fluorescence intensity (MFI) of individual cells was measured by FACS (FACScalibur, manufactured by Becton Dickinson).

T1 sequence (P25942 21-277 limits assumed): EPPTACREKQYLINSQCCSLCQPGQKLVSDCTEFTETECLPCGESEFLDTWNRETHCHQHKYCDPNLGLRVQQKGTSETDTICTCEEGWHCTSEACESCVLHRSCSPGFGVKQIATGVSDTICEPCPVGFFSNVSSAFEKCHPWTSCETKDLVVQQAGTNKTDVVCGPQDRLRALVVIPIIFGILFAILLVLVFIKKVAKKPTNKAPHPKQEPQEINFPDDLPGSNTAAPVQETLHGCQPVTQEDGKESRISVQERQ

B1: IgG2-AAS(341) antibody (antibody)
heavy: QVQLQQSGPGLVKPSQTLSLTCAISGDSVSSNSATWNWIRQSPSRDLEWLGRTYYRSKWYRDYVGSVKSRIIINPDTSNNQFSLQLNSVTPEDTAIYYCTRAQWLGGDYPYYYSMDVWGQGTTVTVSSASTKGPSVFPLAPCSRSTSESTAALGCLVKDYFPEPVTVSWNSGALTSGVHTFPAVLQSSGLYSLSSVVTVPSSNFGTQTYTCNVDHKPSNTKVDKTVERKCCVECPPCPAPPAAAPSVFLFPPKPKDTLMISRTPEVTCVVVDVSHEDPEVQFNWYVDGVEVHNAKTKPREEQFNSTFRVVSVLTVVHQDWLNGKEYKCKVSNKGLPASIEKTISKTKGQPREPQVYTLPPSREEMTKNQVSLTCLVKGFYPSDIAVEWESNGQPENNYKTTPPMLDSDGSFFLYSKLTVDKSRWQQGNVFSCSVMHEALHNHYTQKSLSLSPGK
light: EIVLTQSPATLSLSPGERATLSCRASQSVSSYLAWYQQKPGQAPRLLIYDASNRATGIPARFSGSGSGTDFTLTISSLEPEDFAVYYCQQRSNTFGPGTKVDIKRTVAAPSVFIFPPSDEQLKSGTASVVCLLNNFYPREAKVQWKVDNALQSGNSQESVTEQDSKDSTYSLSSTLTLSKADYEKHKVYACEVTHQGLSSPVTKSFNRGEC
notes: kappa light chain; Signal peptides (1-20 of each chain, estimated by SignalP) are left out; Expressed transiently in 293 cells and purified on protein A
In the case of B1, the binding result is on record as “binds”.

B2: IgG2-S(341) antibody (antibody)
heavy: QVQLQQSGPGLVKPSQTLSLTCAISGDSVSSNSATWNWIRQSPSRDLEWLGRTYYRSKWYRDYVGSVKSRIIINPDTSNNQFSLQLNSVTPEDTAIYYCTRAQWLGGDYPYYYSMDVWGQGTTVTVSSASTKGPSVFPLAPCSRSTSESTAALGCLVKDYFPEPVTVSWNSGALTSGVHTFPAVLQSSGLYSLSSVVTVPSSNFGTQTYTCNVDHKPSNTKVDKTVERKCCVECPPCPAPPVAGPSVFLFPPKPKDTLMISRTPEVTCVVVDVSHEDPEVQFNWYVDGVEVHNAKTKPREEQFNSTFRVVSVLTVVHQDWLNGKEYKCKVSNKGLPASIEKTISKTKGQPREPQVYTLPPSREEMTKNQVSLTCLVKGFYPSDIAVEWESNGQPENNYKTTPPMLDSDGSFFLYSKLTVDKSRWQQGNVFSCSVMHEALHNHYTQKSLSLSPGK
light: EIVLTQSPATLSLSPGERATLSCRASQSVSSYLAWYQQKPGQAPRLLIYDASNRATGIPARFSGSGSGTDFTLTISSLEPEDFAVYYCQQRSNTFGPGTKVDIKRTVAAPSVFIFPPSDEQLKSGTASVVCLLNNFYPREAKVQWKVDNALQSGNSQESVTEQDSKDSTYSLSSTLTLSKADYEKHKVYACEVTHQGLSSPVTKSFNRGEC
As for B2, the binding result is recorded as “binds”.
